The results in this text go back to the supplement of paper PMC9112550, “Optimization of the antimicrobial peptide Bac7 by deep mutational scanning” (BMC Biology, 2022).

This data set relates to Escherichia coli TOP10. The data set is described as follows: shrunken log2 fold change of peptide-encoding DNA abundance (4.5 h post-induction vs induction); higher = less antimicrobial activity (less host growth inhibition). Particulars: time post-induction: 4.5 h; library: site-saturation at positions 5, 18, 19, 20.
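Note: peptides expressed intracellularly from a pBAD plasmid library in pooled LB shake-flask culture, induced with 0.3% L-arabinose, DNA abundance read by NGS, three biological replicates, DESeq2 with apeglm shrinkage.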

Consider RRIRIRPPRLPRPRPRPWPNPRP, for which the “shrunken log2 fold change” value is -0.0754.
With RRIRDRPPRLPRPRPRPPQNPRP the figure was 0.409; with RRIRVRPPRLPRPRPRPHDNPRP, -0.445; with RRIRFRPPRLPRPRPRPIFQPRP, -0.46.
With RRIRMRPPRLPRPRPRPNLHPRP the figure was -0.0942; with RRIRCRPPRLPRPRPRPSINPRP, -0.86; with RRIRTRPPRLPRPRPRPADNPRP, -0.294.
With RRIRFRPPRLPRPRPRPPNDPRP the figure was 0.273; with RRIRFRPPRLPRPRPRPDCVPRP, -0.0904; with RRIRMRPPRLPRPRPRPTMPPRP, 0.174.
For RRIRPRPPRLPRPRPRPEHMPRP, the “shrunken log2 fold change” value was -0.0558.
With RRIRLRPPRLPRPRPRPYLFPRP the figure was -0.602; with RRIRERPPRLPRPRPRPKAKPRP, -0.0257; with RRIRGRPPRLPRPRPRPSWSPRP, 0.425.
With RRIRSRPPRLPRPRPRPQKMPRP the figure was -0.122; with RRIRFRPPRLPRPRPRPQNNPRP, -0.656; with RRIRCRPPRLPRPRPRPKTDPRP, -0.0884.
For the sequence RRIRERPPRLPRPRPRPQAVPRP, the “shrunken log2 fold change” value worked out at 0.0552.
Regarding RRIRDRPPRLPRPRPRPCESPRP, the “shrunken log2 fold change” value was -0.00192.
With RRIRIRPPRLPRPRPRPWSWPRP the figure was -0.0152; with RRIRSRPPRLPRPRPRPYVHPRP, -0.175; with RRIRDRPPRLPRPRPRPRGDPRP, 0.231.
On to RRIRGRPPRLPRPRPRPYFTPRP, for which the “shrunken log2 fold change” value is -0.123.
Consider RRIRYRPPRLPRPRPRPMLKPRP, for which the “shrunken log2 fold change” value is -0.374.
With RRIRQRPPRLPRPRPRPWKQPRP the figure was -0.08; with RRIRFRPPRLPRPRPRPMAKPRP, -0.0311.
In the case of RRIRCRPPRLPRPRPRPGGWPRP, the “shrunken log2 fold change” value came to 0.656.
For RRIRDRPPRLPRPRPRPGKGPRP, the “shrunken log2 fold change” value was 0.0189.
With RRIRPRPPRLPRPRPRPFCSPRP the figure was -0.186; with RRIRWRPPRLPRPRPRPMRMPRP, 0.329.
For the sequence RRIRPRPPRLPRPRPRPWKTPRP, the “shrunken log2 fold change” value is -0.225.
As for RRIRTRPPRLPRPRPRPKMPPRP, the “shrunken log2 fold change” value worked out at 0.158.
With RRIRDRPPRLPRPRPRPMCCPRP, the “shrunken log2 fold change” value amounted to 0.0249.
With RRIRWRPPRLPRPRPRPIRMPRP the figure was 0.098.
With RRIRCRPPRLPRPRPRPTLWPRP the figure was 0.313.
With RRIRLRPPRLPRPRPRPNRQPRP the figure was -0.407; with RRIRKRPPRLPRPRPRPQKPPRP, 0.00856; with RRIRDRPPRLPRPRPRPYSCPRP, 0.0113.
Consider RRIRKRPPRLPRPRPRPDVPPRP, for which the “shrunken log2 fold change” value was 0.501.
Under RRIRIRPPRLPRPRPRPRGPPRP stands 0.81.
With RRIRKRPPRLPRPRPRPKPMPRP, the “shrunken log2 fold change” value came out at 0.515.
With RRIRSRPPRLPRPRPRPMASPRP the figure was 0.088.
With RRIRYRPPRLPRPRPRPSHPPRP the figure was -0.639.
For the sequence RRIRKRPPRLPRPRPRPEPKPRP, the “shrunken log2 fold change” value came out at 0.191.
For RRIRLRPPRLPRPRPRPYAAPRP, the “shrunken log2 fold change” value was -0.36.
As to RRIRTRPPRLPRPRPRPFTVPRP, the “shrunken log2 fold change” value is -0.00127.
Under RRIRYRPPRLPRPRPRPHIQPRP stands -1.03.
With RRIRSRPPRLPRPRPRPNRWPRP the figure was -0.0554; with RRIRVRPPRLPRPRPRPFTIPRP, -0.085.
In the case of RRIRSRPPRLPRPRPRPPAGPRP, the “shrunken log2 fold change” value amounted to 0.704.
